Assay [1] has as its target HLA-DR1 (DRB*0101), purified from B-lymphoblastic cell line LG2.1 (human). Kind of assay: competition with fluorescent HA308-319 on purified HLA-DR1.
Assay [2] deals with HLA-DR2 (DRB1*0201 [sic]), purified from B-lymphoblastic cell line IWB (human). As to the kind of experiment: competition with fluorescent HA308-319 on purified HLA-DR2.

Results on 5 substances are retold here after patent US9115185.

The IC50 is the point on the concentration scale where inhibition reaches its midpoint. Read a low IC50 as greater potency. For HPV16 E2 peptide 271-300, the IC50 in assay [1] is 22 µM; in assay [2], 65 µM.

For HPV16 E2 peptide 286-315, the IC50 in assay [1] came out at 8 µM.

With HPV16 E2 peptide 301-330, the IC50 came out at 6 µM in assay [1] and 8 µM in assay [2].

Consider HPV16 E2 peptide 316-345, for which the figures for the IC50 in assay [1] and in assay [2] were 6 µM and 55 µM, respectively.

Take HPV16 E2 peptide 331-365: the IC50 in assay [1] worked out at 8 µM; in assay [2], 20 µM.
